Measurements reported in article PMC5887453 (Nucleic Acids Research, 2018).

Tests used:
Assay in all cases: native gel or EMSA
PhoEF-2 M219S = target: T1, PhoEF-2 M219S (Pyrococcus horikoshii, UniProt O59521 1-732, M219S)
T1 sequence (looked up): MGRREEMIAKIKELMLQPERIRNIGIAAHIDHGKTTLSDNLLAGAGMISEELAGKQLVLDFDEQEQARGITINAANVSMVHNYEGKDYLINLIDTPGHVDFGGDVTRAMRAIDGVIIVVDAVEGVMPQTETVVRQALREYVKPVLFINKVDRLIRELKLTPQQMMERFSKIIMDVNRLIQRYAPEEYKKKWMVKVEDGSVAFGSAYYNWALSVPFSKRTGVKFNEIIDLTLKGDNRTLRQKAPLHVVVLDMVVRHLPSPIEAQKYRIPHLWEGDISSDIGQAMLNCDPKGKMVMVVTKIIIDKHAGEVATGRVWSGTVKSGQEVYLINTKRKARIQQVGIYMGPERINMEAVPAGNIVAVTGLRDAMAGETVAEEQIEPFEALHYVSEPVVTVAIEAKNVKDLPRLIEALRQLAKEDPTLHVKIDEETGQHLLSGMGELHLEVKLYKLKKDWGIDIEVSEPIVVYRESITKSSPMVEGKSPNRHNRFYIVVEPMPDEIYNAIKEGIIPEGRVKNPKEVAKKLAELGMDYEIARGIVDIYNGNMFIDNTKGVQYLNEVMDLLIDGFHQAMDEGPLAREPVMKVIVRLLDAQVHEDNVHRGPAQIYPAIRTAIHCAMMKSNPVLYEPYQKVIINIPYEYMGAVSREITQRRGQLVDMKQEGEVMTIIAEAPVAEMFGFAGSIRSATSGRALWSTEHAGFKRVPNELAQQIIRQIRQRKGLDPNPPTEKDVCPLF

[1] = target: T2, Pyrococcus horikoshii elongation factor 2 (PhoEF-2), wild type (Pyrococcus horikoshii, UniProt O59521 1-732)
T2 sequence (looked up): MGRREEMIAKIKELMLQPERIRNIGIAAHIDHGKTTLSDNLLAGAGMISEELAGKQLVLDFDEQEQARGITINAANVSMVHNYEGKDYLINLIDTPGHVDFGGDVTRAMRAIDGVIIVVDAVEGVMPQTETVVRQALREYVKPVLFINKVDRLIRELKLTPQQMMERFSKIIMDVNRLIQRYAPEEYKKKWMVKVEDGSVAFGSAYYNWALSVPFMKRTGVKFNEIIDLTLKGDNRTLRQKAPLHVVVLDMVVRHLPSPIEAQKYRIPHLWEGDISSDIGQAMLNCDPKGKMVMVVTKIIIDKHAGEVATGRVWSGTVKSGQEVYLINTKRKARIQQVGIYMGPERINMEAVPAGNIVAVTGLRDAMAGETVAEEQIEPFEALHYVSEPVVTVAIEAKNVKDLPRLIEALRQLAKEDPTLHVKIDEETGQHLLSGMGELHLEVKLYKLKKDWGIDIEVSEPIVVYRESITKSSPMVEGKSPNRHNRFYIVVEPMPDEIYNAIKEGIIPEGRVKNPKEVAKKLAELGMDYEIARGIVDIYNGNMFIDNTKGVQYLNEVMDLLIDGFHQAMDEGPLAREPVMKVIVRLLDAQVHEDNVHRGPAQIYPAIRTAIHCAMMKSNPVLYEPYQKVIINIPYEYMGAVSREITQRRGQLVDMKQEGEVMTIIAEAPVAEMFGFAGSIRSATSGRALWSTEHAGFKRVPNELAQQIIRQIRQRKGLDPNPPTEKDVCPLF

PhoEF-2 F205S = target: T3, PhoEF-2 F205S (Pyrococcus horikoshii, UniProt O59521 1-732, F205S)
T3 sequence (looked up): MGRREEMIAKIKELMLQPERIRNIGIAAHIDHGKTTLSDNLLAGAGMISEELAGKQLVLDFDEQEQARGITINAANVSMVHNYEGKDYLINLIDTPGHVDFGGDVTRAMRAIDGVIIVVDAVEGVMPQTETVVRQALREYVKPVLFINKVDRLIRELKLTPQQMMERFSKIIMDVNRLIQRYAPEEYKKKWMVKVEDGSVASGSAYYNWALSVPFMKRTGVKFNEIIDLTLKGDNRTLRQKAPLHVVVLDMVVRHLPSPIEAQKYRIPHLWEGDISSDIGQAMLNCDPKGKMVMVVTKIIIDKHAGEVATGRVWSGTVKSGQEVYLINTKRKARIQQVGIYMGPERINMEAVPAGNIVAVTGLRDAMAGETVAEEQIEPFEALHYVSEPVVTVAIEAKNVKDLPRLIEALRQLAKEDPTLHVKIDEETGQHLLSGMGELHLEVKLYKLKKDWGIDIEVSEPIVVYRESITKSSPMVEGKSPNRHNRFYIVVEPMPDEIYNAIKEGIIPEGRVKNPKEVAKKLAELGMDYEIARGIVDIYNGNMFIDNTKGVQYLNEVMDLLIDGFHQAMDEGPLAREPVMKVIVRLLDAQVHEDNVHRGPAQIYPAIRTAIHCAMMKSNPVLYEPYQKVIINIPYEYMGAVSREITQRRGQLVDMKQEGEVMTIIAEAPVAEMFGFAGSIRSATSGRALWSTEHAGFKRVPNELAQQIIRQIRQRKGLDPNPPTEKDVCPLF

Measured: binding result

B1: Pyrococcus horikoshii ribosomal stalk protein P1 (natural protein, UniProt O57705 1-108, looked up)
chain: MEYVYAALLLHSVGKEINEENLKAVLQAAGVEPEEARIKALVAALEGVNIDEVIEKAAMPVAVAAAPAAAPAEAGGEEKKEEEKKEEEEKEEEVSEEEALAGLSALFG
modifications: in the SPR only: biotin on amino groups via a PEG linker (EZ-Link NHS-PEG4-Biotin)
binds: PhoEF-2 M219S | [1] | PhoEF-2 F205S
